Consider one protein from paper PMC11522930, “2,2-Difluoro Derivatives of Fucose Can Inhibit Cell Surface Fucosylation without Causing Slow Transfer to Acceptors” (JACS Au, 2024).

Substrate in the data set: C[C@@H]1O[C@H](OP(=O)(O)OP(=O)(O)OC[C@H]2O[C@@H](n3cnc4c(=O)[nH]c(N)nc43)[C@H](O)[C@@H]2O)[C@@H](O)[C@H](O)[C@@H]1O
The data set is described as follows: GDP-Glo glycosyltransferase assay, nonlinear regression. Type of data set: biochemical, Homo sapiens. The note with it: saturating biantennary N-glycan acceptor 7; 1 h. An excerpt: GDP-Glo glycosyltransferase assay, nonlinear regression on FUT8

B1: FUT8 (Homo sapiens) (protein)
chain: MRPWTGSWRWIMLILFAWGTLLFYIGGHLVRDNDHPDHSSRELSKILAKLERLKQQNEDLRRMAESLRIPEGPIDQGPAIGRVRVLEEQLVKAKEQIENYKKQTRNGLGKDHEILRRRIENGAKELWFFLQSELKKLKNLEGNELQRHADEFLLDLGHHERSIMTDLYYLSQTDGAGDWREKEAKDLTELVQRRITYLQNPKDCSKAKKLVCNINKGCGYGCQLHHVVYCFMIAYGTQRTLILESQNWRYATGGWETVFRPVSETCTDRSGISTGHWSGEVKDKNVQVVELPIVDSLHPRPPYLPLAVPEDLADRLVRVHGDPAVWWVSQFVKYLIRPQPWLEKEIEEATKKLGFKHPVIGVHVRRTDKVGTEAAFHPIEEYMVHVEEHFQLLARRMQVDKKRVYLATDDPSLLKEAKTKYPNYEFISDNSISWSAGLHNRYTENSLRGVILDIHFLSQADFLVCTFSSQVCRVAYEIMQTLHPDASANFHSLDDIYYFGGQNAHNQIAIYAHQPRTADEIPMEPGDIIGVAGNHWDGYSKGVNRKLGRTGLYPSYKVREKIETVKYPTYPEAEK
notes: isolated enzyme; construct not described in main text
The Km is the substrate concentration at which the rate is half of its maximum. For B1, the Km is 33.8 ± 2.5 µM.
